According to patent US20190241648A1 (STATEN BIOTECHNOLOGY B V, published 2019):
Ends that are not written are not given here.

Tests used:
Assay in all cases: peptide microarray
[1] = target: T1, wild-type ApoC3 peptide DKFSEFWDLDPEV (SEQ ID NO: 44) (human, not fully specified (bridges); also: cyclic constrained, ring type and positions not given here)
T1 construct: 13 aa cyclic constrained peptide
T1 peptide: DKFSEFWDLDPEV
Protocol: (§1) F64 was completely variable.
(§2) Pre: staining of one of the ApoC3 peptide microarrays was done with the secondary antibody goat anti-human IgG (Fe) DyLight680 (1:5000) and control antibody mouse monoclonal anti-HA (12CA5) DyLight800 (1:2000) to investigate background interactions of the secondary antibody with the antigen-derived peptides that could interfere with the main assays. Subsequent incubation of other ApoC3 peptide microarrays with antibody samples was followed by staining with secondary and control antibodies as well as read-out at scanning intensities of 7/7 (red/green). The additional HA peptides framing the peptide arrays were stained as internal quality control to confirm the assay quality and the peptide microarray integrity.

ApoC3 peptide … W65T = target: T2, ApoC3 peptide … W65T (human, not fully specified (bridges); also: cyclic constrained, ring type and places not given here)
T2 peptide: DKFSEFTDLDPEV
Protocol: as §1, §2

ApoC3 peptide … D68L = target: T3, ApoC3 peptide … D68L (human, cyclic constrained)
T3 peptide: DKFSEFWDLLPEV
Protocol: as §1, §2

ApoC3 peptide … E70D = ApoC3 peptide … E70D (human, cyclic constrained)
Protocol: as §1, §2

ApoC3 peptide … L67Y = target: T4, ApoC3 peptide … L67Y (human, not fully specified (bridges); also: cyclic constrained)
T4 peptide: DKFSEFWDYDPEV
Protocol: as §1, §2

ApoC3 peptide … L67Q = target: T5, ApoC3 peptide … L67Q (human, not fully specified (bridges); also: cyclic constrained)
T5 peptide: DKFSEFWDQDPEV
Protocol: as §1, §2

ApoC3 peptide … D66Q = target: T6, ApoC3 peptide … D66Q (human, not fully specified (bridges); also: cyclic constrained)
T6 peptide: DKFSEFWQLDPEV
Protocol: as §1, §2

ApoC3 peptide … D59Q = target: T7, ApoC3 peptide … D59Q (human, cyclic constrained)
T7 peptide: QKFSEFWDLDPEV
Protocol: as §1, §2

ApoC3 peptide … K60S = target: T8, ApoC3 peptide … K60S (human, not fully specified (bridges); also: cyclic constrained)
T8 peptide: DSFSEFWDLDPEV
Protocol: as §1, §2

ApoC3 peptide … E63N = ApoC3 peptide … E63N (human, cyclic constrained)
Protocol: as §1, §2

ApoC3 peptide … L67I = target: T9, ApoC3 peptide … L67I (human, not fully specified (bridges); also: cyclic constrained)
T9 peptide: DKFSEFWDIDPEV
Protocol: as §1, §2

ApoC3 peptide … E70I = target: T10, ApoC3 peptide … E70I (human, not fully specified (bridges); also: cyclic constrained)
T10 peptide: DKFSEFWDLDPIV
Protocol: as §1, §2

ApoC3 peptide … S62Y = ApoC3 peptide … S62Y (human, cyclic constrained)
Protocol: as §1, §2

ApoC3 peptide … P69T = ApoC3 peptide … P69T (human, cyclic constrained)
Protocol: as §1, §2

ApoC3 peptide … S62E = ApoC3 peptide … S62E (human, cyclic constrained)
Protocol: as §1, §2

ApoC3 peptide … S62P = ApoC3 peptide … S62P (human, cyclic constrained)
Protocol: as §1, §2

ApoC3 peptide … L67C = target: T11, ApoC3 peptide … L67C (human, not fully specified (bridges); also: cyclic constrained)
T11 peptide: DKFSEFWDCDPEV
Protocol: as §1, §2

ApoC3 peptide … E70H = target: T12, ApoC3 peptide … E70H (human, not fully specified (bridges); also: cyclic constrained)
T12 peptide: DKFSEFWDLDPHV
Protocol: as §1, §2

ApoC3 peptide … S62T = ApoC3 peptide … S62T (human, cyclic constrained)
Protocol: as §1, §2

ApoC3 peptide … V71T = ApoC3 peptide … V71T (human, cyclic constrained)
Protocol: as §1, §2

ApoC3 peptide … W65S = target: T13, ApoC3 peptide … W65S (human, not fully specified (bridges); also: cyclic constrained, ring type and places not given here)
T13 peptide: DKFSEFSDLDPEV
Protocol: as §1, §2

ApoC3 peptide … W65F = ApoC3 peptide … W65F (human, cyclic constrained)
Protocol: as §1, §2

ApoC3 peptide … F61C = target: T14, ApoC3 peptide … F61C (human, cyclic constrained)
T14 peptide: DKCSEFWDLDPEV
Protocol: as §1, §2

ApoC3 peptide … E70N = target: T15, ApoC3 peptide … E70N (human, not fully specified (bridges); also: cyclic constrained)
T15 peptide: DKFSEFWDLDPNV
Protocol: as §1, §2

ApoC3 peptide … K60T = target: T16, ApoC3 peptide … K60T (human, not fully specified (bridges); also: cyclic constrained)
T16 peptide: DTFSEFWDLDPEV
Protocol: as §1, §2

ApoC3 peptide … E70Q = target: T17, ApoC3 peptide … E70Q (human, not fully specified (bridges); also: cyclic constrained)
T17 peptide: DKFSEFWDLDPQV
Protocol: as §1, §2

ApoC3 peptide … S62Q = ApoC3 peptide … S62Q (human, cyclic constrained)
Protocol: as §1, §2

ApoC3 peptide … E70F = ApoC3 peptide … E70F (human, cyclic constrained)
Protocol: as §1, §2

ApoC3 peptide … F64P = target: T18, ApoC3 peptide … F64P (human, not fully specified (bridges); also: cyclic constrained)
T18 peptide: DKFSEPWDLDPEV
Protocol: as §1, §2

ApoC3 peptide … P69L = target: T19, ApoC3 peptide … P69L (human, not fully specified (bridges); also: cyclic constrained)
T19 peptide: DKFSEFWDLDLEV
Protocol: as §1, §2

ApoC3 peptide … F61Q = target: T20, ApoC3 peptide … F61Q (human, not fully specified (bridges); also: cyclic constrained)
T20 peptide: DKQSEFWDLDPEV
Protocol: as §1, §2

ApoC3 peptide … D68Y = ApoC3 peptide … D68Y (human, cyclic constrained)
Protocol: as §1, §2

ApoC3 peptide … F61L = target: T21, ApoC3 peptide … F61L (human, not fully specified (bridges); also: cyclic constrained)
T21 peptide: DKLSEFWDLDPEV
Protocol: as §1, §2

ApoC3 peptide … F64V = target: T22, ApoC3 peptide … F64V (human, not fully specified (bridges); also: cyclic constrained)
T22 peptide: DKFSEVWDLDPEV
Protocol: as §1, §2

ApoC3 peptide … D68W = ApoC3 peptide … D68W (human, cyclic constrained)
Protocol: as §1, §2

ApoC3 peptide … L67V = target: T23, ApoC3 peptide … L67V (human, not fully specified (bridges); also: cyclic constrained)
T23 peptide: DKFSEFWDVDPEV
Protocol: as §1, §2

B1: anti-ApoC3 antibody 6A6 (antibody, V domains shown)
VH: EVQLVESGGGLVQPGGSLRLSCAASGFTFSSYAGRWVRQVPGKGLEWVSSINAGGGSTSYADSVKGRFTISRDNAKNTLYLQMNSLKPEDTAKYYCTQNSYRYWGQGTRVAVSS
VL: DVVLTQTPGSLSVVPGESASISCKASQSLIHTDGKTYLYWLLQKPGQRPQLLIYQVSSHESGVPDRFTGSGSGTDFTLKISGVKAEDAGVYYCAQATYNPRTFGQGTKLEIK
notes: it was detected with goat anti-human IgG (Fc); also called mAb 6A6; llama antibody 6A6
With B1 the “% of binding to wild-type peptide” value [1] was 100%, the “% of binding to wild-type peptide” value (ApoC3 peptide … W65T) was 105% and the “% of binding to wild-type peptide” value (ApoC3 peptide … D68L) was 0%. For the same binder, the “% of binding to wild-type peptide” value (ApoC3 peptide … E70D) was 13.8%, the “% of binding to wild-type peptide” value (ApoC3 peptide … L67Y) was 3.08% and the “% of binding to wild-type peptide” value (ApoC3 peptide … L67Q) was 25.7%. The “% of binding to wild-type peptide” value (ApoC3 peptide … D66Q) was 0%, the “% of binding to wild-type peptide” value (ApoC3 peptide … D59Q) was 95% and the “% of binding to wild-type peptide” value (ApoC3 peptide … K60S) was 156%. The “% of binding to wild-type peptide” value (ApoC3 peptide … E63N) was 38.8%, the “% of binding to wild-type peptide” value (ApoC3 peptide … L67I) was 105% and the “% of binding to wild-type peptide” value (ApoC3 peptide … E70I) was 1.59%. For the same binder, the “% of binding to wild-type peptide” value (ApoC3 peptide … S62Y) was 16.3%, the “% of binding to wild-type peptide” value (ApoC3 peptide … P69T) was 118% and the “% of binding to wild-type peptide” value (ApoC3 peptide … S62E) was 70.7%. The “% of binding to wild-type peptide” value (ApoC3 peptide … S62P) was 27.1%, the “% of binding to wild-type peptide” value (ApoC3 peptide … L67C) was 1.13% and the “% of binding to wild-type peptide” value (ApoC3 peptide … E70H) was 0.03%. The “% of binding to wild-type peptide” value (ApoC3 peptide … S62T) was 139%, the “% of binding to wild-type peptide” value (ApoC3 peptide … V71T) was 94.5% and the “% of binding to wild-type peptide” value (ApoC3 peptide … W65S) was 132%. The “% of binding to wild-type peptide” value (ApoC3 peptide … W65F) was 55.3%, the “% of binding to wild-type peptide” value (ApoC3 peptide … F61C) was 20.6% and the “% of binding to wild-type peptide” value (ApoC3 peptide … E70N) was 0.15%. The “% of binding to wild-type peptide” value (ApoC3 peptide … K60T) was 149%, the “% of binding to wild-type peptide” value (ApoC3 peptide … E70Q) was 2.1% and the “% of binding to wild-type peptide” value (ApoC3 peptide … S62Q) was 111%. The “% of binding to wild-type peptide” value (ApoC3 peptide … E70F) was 9.36%, the “% of binding to wild-type peptide” value (ApoC3 peptide … F64P) was 285% and the “% of binding to wild-type peptide” value (ApoC3 peptide … P69L) was 36.8%. The “% of binding to wild-type peptide” value (ApoC3 peptide … F61Q) was 64.5%, the “% of binding to wild-type peptide” value (ApoC3 peptide … D68Y) was 0% and the “% of binding to wild-type peptide” value (ApoC3 peptide … F61L) was 61.3%. The “% of binding to wild-type peptide” value (ApoC3 peptide … F64V) was 86%, the “% of binding to wild-type peptide” value (ApoC3 peptide … D68W) was 0% and the “% of binding to wild-type peptide” value (ApoC3 peptide … L67V) was 56.5%.
